Key:
[1] = molecular target: human CLDN18.2 as used in the Octet assay (human); experiment: Octet (BLI); format not described
[2] = molecular target: recombinant 6xHis tagged human CLDN18.2 (human); experiment: SPR (Biacore T200), His tagged CLDN18.2 amine-coupled on CM5, antibody as analyte, 1:1 fit
[3] = molecular target: recombinant 6xHis tagged human CLDN18.2 (human); experiment: SPR (Biacore); same values as Table 30

Kd [1]: 1.6 nM
Kd [2]: 115 nM
Kd [3]: 115 nM
Substance: IMAB362 (Zolbetuximab) (antibody)

— US20240270839A1
